Data from US20100035825A1 (University of California, published 2010).
Substitutions are numbered along the chain they refer to.

T1: procaspase 8 (endogenous, mouse hepatic stellate cells) (mouse, UniProt O89110 1-480)
T1 construct: also called procaspases 8
T1 sequence (looked up): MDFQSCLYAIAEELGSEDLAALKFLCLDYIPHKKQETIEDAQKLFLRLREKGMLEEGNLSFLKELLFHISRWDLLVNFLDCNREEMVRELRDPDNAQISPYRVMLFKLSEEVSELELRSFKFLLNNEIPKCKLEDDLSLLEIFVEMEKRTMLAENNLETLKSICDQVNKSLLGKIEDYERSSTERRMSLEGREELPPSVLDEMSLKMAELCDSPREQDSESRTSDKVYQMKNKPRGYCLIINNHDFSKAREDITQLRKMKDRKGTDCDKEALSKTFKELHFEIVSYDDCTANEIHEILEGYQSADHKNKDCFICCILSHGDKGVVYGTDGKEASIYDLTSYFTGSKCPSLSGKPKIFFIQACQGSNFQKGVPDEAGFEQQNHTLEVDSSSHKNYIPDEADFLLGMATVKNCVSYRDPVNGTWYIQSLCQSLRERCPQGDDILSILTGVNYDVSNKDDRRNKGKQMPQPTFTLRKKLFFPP

T2: procaspase 1 (endogenous, mouse hepatic stellate cells) (mouse, UniProt P29452 1-402)
T2 construct: also called procaspases 1
T2 sequence (looked up): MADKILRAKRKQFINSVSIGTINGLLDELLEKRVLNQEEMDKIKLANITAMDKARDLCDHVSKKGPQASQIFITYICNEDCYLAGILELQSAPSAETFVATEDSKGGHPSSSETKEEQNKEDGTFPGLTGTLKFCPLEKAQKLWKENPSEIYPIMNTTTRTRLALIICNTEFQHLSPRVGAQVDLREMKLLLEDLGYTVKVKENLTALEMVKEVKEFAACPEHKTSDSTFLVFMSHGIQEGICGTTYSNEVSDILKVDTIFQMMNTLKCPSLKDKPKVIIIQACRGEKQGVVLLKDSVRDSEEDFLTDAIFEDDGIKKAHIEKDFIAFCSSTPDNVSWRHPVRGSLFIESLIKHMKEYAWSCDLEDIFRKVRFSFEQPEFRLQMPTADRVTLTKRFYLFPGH

T3: C/EBPβ-HA-Ala^217 (mouse, UniProt P28033 1-296, limits assumed)
T3 construct: not shown: HA (hemagglutinin) tag
T3 sequence: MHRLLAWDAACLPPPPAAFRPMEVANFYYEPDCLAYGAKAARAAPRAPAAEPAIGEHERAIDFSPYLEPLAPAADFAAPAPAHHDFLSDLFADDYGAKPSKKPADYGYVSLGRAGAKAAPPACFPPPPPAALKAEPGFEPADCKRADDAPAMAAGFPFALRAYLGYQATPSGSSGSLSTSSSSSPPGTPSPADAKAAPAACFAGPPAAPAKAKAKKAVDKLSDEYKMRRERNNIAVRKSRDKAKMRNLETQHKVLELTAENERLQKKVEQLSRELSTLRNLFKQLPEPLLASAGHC

T4: procaspase 7 (endogenous, mouse hepatic stellate cells) (mouse, UniProt P97864 1-303)
T4 construct: also called effector procaspase 7
T4 sequence (looked up): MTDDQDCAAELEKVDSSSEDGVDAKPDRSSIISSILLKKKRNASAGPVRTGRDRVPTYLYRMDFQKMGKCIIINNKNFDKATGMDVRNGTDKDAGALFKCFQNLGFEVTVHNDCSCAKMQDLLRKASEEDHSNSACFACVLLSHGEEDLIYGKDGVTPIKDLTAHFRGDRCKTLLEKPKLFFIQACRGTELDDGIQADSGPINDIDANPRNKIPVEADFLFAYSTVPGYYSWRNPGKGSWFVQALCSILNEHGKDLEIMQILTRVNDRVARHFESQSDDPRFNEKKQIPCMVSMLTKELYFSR

T5: procaspase 9 (endogenous, mouse hepatic stellate cells) (mouse, UniProt Q8C3Q9 1-454)
T5 construct: also called effector procaspase 9
T5 sequence (looked up): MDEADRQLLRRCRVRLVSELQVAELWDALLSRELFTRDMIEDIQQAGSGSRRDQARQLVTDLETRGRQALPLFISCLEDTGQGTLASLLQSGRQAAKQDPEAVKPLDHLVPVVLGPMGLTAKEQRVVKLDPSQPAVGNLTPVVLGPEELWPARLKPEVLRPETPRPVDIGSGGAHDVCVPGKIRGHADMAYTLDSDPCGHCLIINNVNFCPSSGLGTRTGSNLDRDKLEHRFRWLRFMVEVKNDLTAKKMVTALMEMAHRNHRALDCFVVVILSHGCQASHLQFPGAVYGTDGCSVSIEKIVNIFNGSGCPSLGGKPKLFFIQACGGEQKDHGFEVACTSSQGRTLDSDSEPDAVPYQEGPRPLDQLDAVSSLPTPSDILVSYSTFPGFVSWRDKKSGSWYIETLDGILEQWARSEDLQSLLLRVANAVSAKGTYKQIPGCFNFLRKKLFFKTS

B1: C/EBPβ-HA-Glu^217 (other, not shown: small tags and cut ends)
chain: T3 sequence with A217E
B2: purified recombinant procaspase 8 (human, Alexis Biochemicals) (enzyme, UniProt Q14790 217-479, looked up)
chain: SESQTLDKVYQMKSKPRGYCLIINNHNFAKAREKVPKLHSIRDRNGTHLDAGALTTTFEELHFEIKPHDDCTVEQIYEILKIYQLMDHSNMDCFICCILSHGDKGIIYGTDGQEAPIYELTSQFTGLKCPSLAGKPKVFFIQACQGDNYQKGIPVETDSEEQPYLEMDLSSPQTRYIPDEADFLLGMATVNNCVSYRNPAEGTWYIQSLCQSLRERCPRGDDILTILTEVNYEVSNKDDKKNMGKQMPQPTFTLRKKLVFPSD
notes: also called recombinant caspase 8; procaspases 8; not shown: 21 amino acid linker at the N-terminus from the expression vector
B3: procaspase 3 (endogenous, mouse hepatic stellate cells) (enzyme, UniProt P70677 1-277, looked up)
chain: MENNKTSVDSKSINNFEVKTIHGSKSVDSGIYLDSSYKMDYPEMGICIIINNKNFHKSTGMSSRSGTDVDAANLRETFMGLKYQVRNKNDLTREDILELMDSVSKEDHSKRSSFVCVILSHGDEGVIYGTNGPVELKKLTSFFRGDYCRSLTGKPKLFIIQACRGTELDCGIETDSGTDEEMACQKIPVEADFLYAYSTAPGYYSWRNSKDGSWFIQSLCSMLKLYAHKLEFMHILTRVNRKVATEFESFSLDSTFHAKKQIPCIVSMLTKELYFYH
notes: also called effector procaspase 3
B4: C/EBPβ-PThr^217 (mouse C/EBPβ phosphorylated on Thr217) (other)
chain: T3 sequence with A217T
modifications: phosphothreonine at 217
notes: Endogenous, phosphorylated in stellate cells after CCl4 or on collagen type I

Legend:
[1] = target: T1, procaspase 8 (endogenous, mouse hepatic …); test: anti-HA co-immunoprecipitation and immunoblot, transfected activated stellate cells
[2] = target: T2, procaspase 1 (endogenous, mouse hepatic …); test: as above
[3] = target: B2; test: co-immunoprecipitation of purified recombinant proteins (C/EBPβ peptides 200 µM), immunoblot, densitometry; reference C/EBPβ-HA-Ala217
[4] = target: T3, C/EBPβ-HA-Ala^217; test: co-immunoprecipitation of purified recombinant proteins
[5] = target: B4; test: C/EBPβ immunoprecipitation and immunoblot, stellate cells of CCl4-treated C/EBPβ+/+ mice
[6] = target: T4, procaspase 7 (endogenous, mouse hepatic …); test: as above
[7] = target: T5, procaspase 9 (endogenous, mouse hepatic …); test: as above

With B1 the binding result [1] was “binds”, the binding result [2] was “binds” and the “fold more co-immunoprecipitated than the Ala^217 peptides (densitometry)” value [3] was 12 fold.

B2: no binding [4].

B3: no binding [5].

B4: no binding [6]; no binding [7].
